B1: human anti-ANG-2 antibody <ANG-2> antibody Mab536 (antibody, V domains shown)
VH: EVQLVQSGGGVVQPGRSLRLSCAASGFTFSSYGMHWVRQAPGKGLEWVSYISSSGSTIYYADSVKGRFTISRDNAKNSLYLQMNSLRAEDTAVYYCARDLLDYDILTGYGYWGQGTLVTVSS
VL: not shown
B2: <ANG-2> Ang2i_LC10 (antibody, V domains shown)
VH: not shown
VL: QPPSVSVAPGQTARITCGGNNIGSKSVHWYQQKPGQAPVLVVYDDSDRPSGIPERFSGSNSGNTATLTISRVEAGDEADYYCQVWDSSSDHWVFGGGTKLTVLG
B3: <ANG-2> Ang2k_LC08 (antibody, V domains shown)
VH: QVQLVESGGGVVQPGGSLRLSCAASGFTFSSYGMHWVRQAPGKGLEWVAVISYDGSNKYYADSVKGRFTISRDNSKNTLYLQMNSLRAEDTAVYYCAKPTLDIYMGYYYGMDVWGQGTTVTVSS
VL: QPVLTQPPSASGAPGQRVTISCSGFASNIGSNSVNWYQQVPGTAPKLLIYNNDQRPSGVPDRFSGSRSGTSASLAISGLQSEDEADYYCAAWDDSLNGPVFGGGTKLTVLG
notes: Only the variable domains are tied to this antibody
B4: <ANG-2> Ang2i_LC06 (antibody, V domains shown)
VH: not shown
VL: QPGLTQPPSVSVAPGQTARITCGGNNIGSKSVHWYQQKPGQAPVLVVYDDSDRPSGIPERFSGSNSGNTATLTISRVEAGDEADYYCQVWDSSSDHYVFGTGTKVTVLG
notes: as for B3
B5: <ANG-2> Ang2i_LC07 (antibody, V domains shown)
VH: not shown
VL: QPVLTQSPSVSVAPGETARVACGGNFIGGKSVHWYQQKPGQAPVLVIYDDSERPSGIPERISGSNSGNTATLIITRAEAGDEADYHCQVWDSDSDQGVFGTGTKLTVLG
notes: as for B3

Tests used:
[1] = target: T1, Human angiopoietin-1 (ANG-1) with His-tag (human, UniProt Q15389 16-498); test: ANG-1 binding ELISA, human ANG-1 coated, antibody titrated
T1 construct: The assays used Angiopoietin-1-His, either R&D Systems #923-AN or in-house material; also called hANG-1; huAng-1
T1 sequence: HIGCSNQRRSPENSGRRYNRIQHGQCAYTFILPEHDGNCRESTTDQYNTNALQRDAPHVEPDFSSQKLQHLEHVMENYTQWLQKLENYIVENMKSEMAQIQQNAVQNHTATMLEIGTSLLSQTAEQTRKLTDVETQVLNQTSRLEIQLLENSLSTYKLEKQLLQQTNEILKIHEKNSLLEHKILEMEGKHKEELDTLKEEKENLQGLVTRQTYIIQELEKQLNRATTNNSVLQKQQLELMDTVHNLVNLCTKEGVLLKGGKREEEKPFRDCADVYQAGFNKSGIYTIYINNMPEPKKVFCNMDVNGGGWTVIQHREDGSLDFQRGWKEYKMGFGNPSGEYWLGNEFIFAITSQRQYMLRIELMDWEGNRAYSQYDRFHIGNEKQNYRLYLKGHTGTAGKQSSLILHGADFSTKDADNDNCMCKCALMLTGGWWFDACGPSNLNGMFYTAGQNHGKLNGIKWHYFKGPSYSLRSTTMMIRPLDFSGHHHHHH
Procedure: (§1) The wells were washed three times with 300 μl PBST (0.2% Tween® 20) and blocked with 200 μl 2% BSA 0.1% Tween® 20 for 30 min at room temperature and subsequently washed three times with 300 μl PBST. […] The wells were washed three times with 300 μl PBST (0.2% Tween® 20) and bound antibody was detected with 100 μL/well 0.1 μg/ml F(ab′) POD (Biozol Cat. No. 206005) in 2% BSA 0.1% Tween® 20 as detection antibody for 1 h on a microtiterplate shaker at room temperature. Unbound detection antibody was washed away three times with 300 μL/well PBST and the bound detection antibody was detected by addition of 100 μL ABTS/well. Determination of absorbance was performed on a Tecan Fluor Spectrometer at a measurement wavelength of 405 nm (reference wavelength 492 nm).
(§2) Briefly, the ELISA-type assay is based on the immobilization of human wild-type Angiopoietin-1 or -2 in a microtiter plate.

[2] = target: T2, Human angiopoietin-2 (ANG-2) with His-tag (human, UniProt O15123 19-496); test: ANG-2 binding ELISA, human ANG-2 coated, antibody titrated
T2 construct: The assays used full-length Angiopoietin-2-His, either R&D Systems #623-AN or in-house material; also called hANG-2; hAng-2
T2 sequence: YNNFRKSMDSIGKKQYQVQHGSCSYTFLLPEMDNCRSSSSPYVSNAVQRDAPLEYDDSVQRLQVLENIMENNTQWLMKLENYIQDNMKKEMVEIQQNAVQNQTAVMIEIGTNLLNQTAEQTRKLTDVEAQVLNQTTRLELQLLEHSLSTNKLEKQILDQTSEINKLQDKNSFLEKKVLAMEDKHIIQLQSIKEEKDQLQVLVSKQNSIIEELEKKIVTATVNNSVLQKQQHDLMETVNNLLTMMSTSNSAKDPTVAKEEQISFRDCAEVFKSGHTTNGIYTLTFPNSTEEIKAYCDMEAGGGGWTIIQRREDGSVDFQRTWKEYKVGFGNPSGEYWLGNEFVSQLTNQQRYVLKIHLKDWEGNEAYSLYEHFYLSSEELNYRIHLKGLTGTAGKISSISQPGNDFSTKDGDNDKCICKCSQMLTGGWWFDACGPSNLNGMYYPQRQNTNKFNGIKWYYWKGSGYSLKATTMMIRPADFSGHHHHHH
Procedure: as §1, §2

[3] = target: T2, Human angiopoietin-2 (ANG-2) with …; test: Biacore SPR, antibody captured by anti-Fc, ANG-2-His in solution, 1:1 model, Experiment 1
Procedure: (§3) Biacore® T100 Evaluation Software version 1.1.1 was used for analysis of sensorgrams and for calculation of affinity data.
(§4) The affinity for this interaction is determined with the assumption of a 1:1 interaction. Details of this experiment can be found in the general methods section.

[4] = target: T2, Human angiopoietin-2 (ANG-2) with …; test: Biacore SPR, antibody captured by anti-Fc, ANG-2-His in solution, 1:1 model, Experiment 2
Procedure: as §3, §4

[5] = target: T2, Human angiopoietin-2 (ANG-2) with …; test: Biacore SPR, antibody captured by anti-Fc, ANG-2-His in solution, 1:1 model, average of Experiments 1 + 2
Procedure: as §3, §4

[6] = target: T2, Human angiopoietin-2 (ANG-2) with …; test: ANGPT2/Tie2 interaction ELISA: antibody titrated with 0.2 ug/ml huAngiopoietin-2 on coated Tie2 (printed as 'inhibitory concentrations')
Procedure: The interaction ELISA was performed on 384 well microtiter plates (MicroCoat, DE, Cat. No. 464718) at RT. After each incubation step plates were washed 3 times with PBST. ELISA plates were coated with 0.5 μg/ml Tie-2 protein (R&D Systems, UK, Cat. No. 313-TI) for at least 2 hours (h). Thereafter the wells were blocked with PBS supplemented with 0.2% Tween® 20 and 2% BSA (Roche Diagnostics GmbH, DE) for 1 h. […] After washing a mixture of 0.5 μg/ml biotinylated anti-Angiopoietin-2 clone BAM0981 (R&D Systems, UK) and 1:3000 diluted streptavidin HRP (Roche Diagnostics GmbH, DE, Cat. No. 11089153001) was added for 1 h. Thereafter the plates were washed 6 times with PBST. Plates were developed with freshly prepared ABTS reagent (Roche Diagnostics GmbH, DE, buffer #204 530 001, tablets #11 112 422 001) for 30 minutes at RT. Absorbance was measured at 405 nm.
(§5) 384-well Maxisorp® plates (Nunc) were coated with 0.5 μg/ml human Tie2 (R&D Systems, UK, Cat. No. 313-TI or in house produced material) for 2 h at room temperature and blocked with PBS supplemented with 0.2% Tween® 20 and 2% BSA (Roche Diagnostics GmbH, DE) for 1 h at room temperature under shaking. […] After washing a mixture of 0.5 μg/ml biotinylated anti-Angiopoietin-1/2 clone (R&D Systems #BAF923, BAM0981 R&D Systems, UK) and 1:3000 diluted streptavidin HRP (Roche Diagnostics GmbH, DE, Cat. No. 11089153001) was added for 1 h. Thereafter the plates were washed 6 times with PBST. Plates were developed with freshly prepared ABTS reagent (Roche Diagnostics GmbH, DE, buffer #204 530 001, tablets #11 112 422 001) for 30 minutes at RT. Absorbance was measured at 405 nm.

[7] = target: T1, Human angiopoietin-1 (ANG-1) with …; test: SPR (Biacore): huAng-1 amine-coupled on a CM5 chip (appr. 20000 RU), BSA on the reference cell, antibody 100 nM in HBS-P injected for 3 min, 3 min dissociation
Procedure: The protein was injected for 20 min in sodium acetate pH 4.5 at 10 μg/ml at a flow rate of 5 μl/min. […] On the reference flow cell BSA was immobilized under the same conditions. The antibodies were diluted in HBS-P to 100 nM and injected for 3 min (association phase). After washing with running buffer for 3 min (dissociation phase), the surface was regenerated by injecting 10 mM sodium hydroxide for 1 min at 5 μl/min.

[8] = target: T2, Human angiopoietin-2 (ANG-2) with …; test: cell-based or functional assay
[9] = target: T1, Human angiopoietin-1 (ANG-1) with …; test: cell-based or functional assay
[10] = target: T1, Human angiopoietin-1 (ANG-1) with …; test: ANGPT1/Tie2 interaction ELISA: antibody titrated with 0.2 ug/ml huAngiopoietin-1 on coated Tie2 (printed as 'inhibitory concentrations')
Procedure: After each incubation step plates were washed 3 times with PBST. […] Thereafter the wells were blocked with PBS supplemented with 0.2% Tween® 20 and 2% BSA (Roche Diagnostics GmbH, DE) for 1 h. […] Thereafter the plates were washed 6 times with PBST. Plates were developed with freshly prepared ABTS reagent (Roche Diagnostics GmbH, DE, buffer #204 530 001, tablets #11 112 422 001) for 30 minutes at RT. Absorbance was measured at 405 nm.
as §5

Binder	EC50 [1] [µg/mL]	EC50 [2] [µg/mL]	Kd [3] [pM]	koff [3] [s⁻¹]	Kd [4] [pM]	koff [4] [s⁻¹]	Kd [5] [pM]	IC50 [6] [pM]	binding result [7]	IC50 of ANGPT2 stimulated Tie2 phosphorylation (HEK293-Tie2 clone22, P-Tie2 sandwich ELISA) [8] [µg/mL]	IC50 of ANGPT1 stimulated Tie2 phosphorylation (HEK293-Tie2 clone22, P-Tie2 sandwich ELISA) [9] [µg/mL]	IC50 [10] [pM]
B1	2.54	0.133	29	0.000144	29	0.000125	29	150				
B2									no binding (tested: 100 nM)			
B3	4.04	0.105	16	0.000161	27	0.000228	22	170		~0.499	~0.391	11000
B4	> 8	0.084	11	7.16e-05	21	0.000114	16	100		~0.508		
B5	> 8	3.01										
